Results as given in patent US20240350630A1.
Values belong to the binder of their own block, whether it stands above or below them.

Columns and labels:
[1] = biological target: recombinant human BCMA (Acro Biosystems) (human) (UniProt Q02223); experiment: SPR, scFv-Fc captured by anti-human IgG Fc on a CM5 chip, BCMA as analyte, global fit
[2] = biological target: recombinant human BCMA (Acro Biosystems) (human) (UniProt Q02223); experiment: SPR: scFv-Fc captured on an anti-human IgG Fc CM5 chip (sheet: ligand 20nM), recombinant human BCMA as analyte, 1:1 Binding model, 25 C
[3] = biological target: rBCMA conjugated with AF647 (UniProt Q02223); experiment: flow cytometry of primary T cells transduced with the CAR, stained with labelled recombinant BCMA (sheet: rBCMA-APC, APC-A; text: BCMA-AF647 at 1 ug/ml); untransduced T cells (UT) give 0.61 in the same gate

Kd [1]: 0.44 nM | Kd [2]: 0.355 nM | koff [2]: 0.00486 s⁻¹ | kon [2]: 1.37e+07 M⁻¹ s⁻¹
B1: 7A8.11 scFv-Fc (Fc fusion, not shown: a dimerising Fc or GST; small tags and cut ends)
scFv: EVQLVESGGGLVQPGGSLRLSCEASGFTFSSFWMNWVRQAPGKGLEWVANIKEDGSEKYYVDSVKGRFTISRDNAKNSLYLQMNSLRVEDTAVYYCARALDYYGMDVWGQGTTVTVSSGGGGSGGGGSGGGGSGGGGSYIVMTQTPLSLPVTPGEPASISCRSSQSLLDSDDGNTYLDWYLQKPGQSPQLLIYTLSYRASGVPDRFSGSGSGTDFTLKISRVEAEDVGVYYCMQRIEFPSYTFGQGTKLEIK

% BCMA CAR+ cells [3]: 99.6%
B2: 15B2 (protein, part only; not given: hinge, transmembrane and signalling domains, part only)
CAR chain, part: EVQLVESGGGLVKPGGSLRLSCAASGFTFRSYSMNWVRQAPGKGLEWVSSISGSSNYIYYADSVKGRFTISRDNAKNSLYLQMNSLRAEDTAVYYCARGGNYYVEYFQYWGQGTLVTVSSGGGGSGGGGSGGGGSGGGGSEIVLTQSPGTLSLSPGERATLSCRASQYISSNYLAWYQQKPGQAPRLLIYGASNRATGIPDRFSGSGSGTDFTLTISRLEPEDFAVYYCQQYGSSPITFGQGTKLEIK

Kd [1]: 0.37 nM | Kd [2]: 0.371 nM | koff [2]: 0.000673 s⁻¹ | kon [2]: 1.81e+06 M⁻¹ s⁻¹
B3: L15 scFv-Fc (Fc fusion, not shown: a dimerising Fc or GST; small tags and cut ends)
scFv: EVQLVESGGGLVKPGGSLRLSCAASGFTFSSYSMNWVRQAPGKGLEWVSSISGQSNYIYYADSVKGRFTISRDNAKNSLYLQMNSLRAEDTAVYYCARGGNYFVEYFQYWGQGTLVTVSSGSGGGGSGGGGSGGGGSGGGGSEIVLTQSPGTLSLSPGERATLSCRASQYISSNNLAWYQQKPGQAPRLLIYGASNRATGIPDRFSGSGSGTDFTLTISRLEPEDFAVYYCQQYADSPITFGQGTKLEIK
